Laboratory results: patent US12698494

Biological target: T1, FRETS-VWF73 fluorogenic substrate, P04275
T1 chain: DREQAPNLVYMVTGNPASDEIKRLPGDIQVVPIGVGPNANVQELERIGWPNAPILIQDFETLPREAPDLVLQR

B1: Full-length ADAMTS13 variant NGLY6 (636RLPRL640 to 636RNASL640) (protein)
chain: AAGGILHLELLVAVGPDVFQAHQEDTERYVLTNLNIGAELLRDPSLGAQFRVHLVKMVILTEPEGAPNITANLTSSLLSVCGWSQTINPEDDTDPGHADLVLYITRFDLELPDGNRQVRGVTQLGGACSPTWSCLITEDTGFDLGVTIAHEIGHSFGLEHDGAPGSGCGPSGHVMASDGAAPRAGLAWSPCSRRQLLSLLSAGRARCVWDPPRPQPGSAGHPPDAQPGLYYSANEQCRVAFGPKAVACTFAREHLDMCQALSCHTDPLDQSSCSRLLVPLLDGTECGVEKWCSKGRCRSLVELTPIAAVHGRWSSWGPRSPCSRSCGGGVVTRRRQCNNPRPAFGGRACVGADLQAEMCNTQACEKTQLEFMSQQCARTDGQPLRSSPGGASFYHWGAAVPHSQGDALCRHMCRAIGESFIMKRGDSFLDGTRCMPSGPREDGTLSLCVSGSCRTFGCDGRMDSQQVWDRCQVCGGDNSTCSPRKGSFTAGRAREYVTFLTVTPNLTSVYIANHRPLFTHLAVRIGGRYVVAGKMSISPNTTYPSLLEDGRVEYRVALTEDRNASLEEIRIWGPLQEDADIQVYRRYGEEYGNLTRPDITFTYFQPKPRQAWVWAAVRGPCSVSCGAGLRWVNYSCLDQARKELVETVQCQGSQQPPAWPEACVLEPCPPYWAVGDFGPCSASCGGGLRERPVRCVEAQGSLLKTLPPARCRAGAQQPAVALETCNPQPCPARWEVSEPSSCTSAGGAGLALENETCVPGADGLEAPVTEGPGSVDEKLPAPEPCVGMSCPPGWGHLDATSAGEKAPSPWGSIRTGAQAAHVWTPAAGSCSVSCGRGLMELRFLCMDSALRVPVQEELCGLASKPGSRREVCQAVPCPARWQYKLAACSVSCGRGVVRRILYCARAHGEDDGEEILLDTQCQGLPRPEPQEACSLEPCPPRWKVMSLGPCSASCGLGTARRSVACVQLDQGQDVEVDEAACAALVRPEASVPCLIADCTYRWHVGTWMECSVSCGDGIQRRRDTCLGPQAQAPVPADFCQHLPKPVTVRGCWAGPCVGQGTPSLVPHEEAAAPGRTTATPAGASLEWSQARGLLFSPAPQPRRLLPGPQENSVQSSACGRQHLEPTGTIDMRGPGQADCAVAIGRPLGEVVTLRVLESSLNCSAGDMLLLWGRLTWRKMCRKLLDMTFSSKTNTLVVRQRCGRPGGGVLLRYGSQLAPETFYRECDMQLFGPWGEIVSPSLSPATSNAGGCRLFINVAPHARIAIHALATNMGAGTEGANASYILIRDTHSLRTTAFHGQQVLYWESESSQAEMEFSEGFLKAQASLRGQYWTLQSWVPEMQDPQSWKGKEGTHHHHHH
FRETS-VWF73 activity relative to wild-type ADAMTS13: NGLY6 showed a reduced activity when compared to wild-type ADAMTS13
